Test results from publication PMC8163826.
Where two headings read alike, the source gives them in different places.

How the values were obtained:
[1] = target: RSV CASPNC (Rous sarcoma virus); experiment: cryo-EM structure; cryo-electron tomography and subtomogram averaging of CASPNC CLPs (regular tubes and polyhedrons) assembled in the presence of 100 µM IP6
[2] = target: RSV CASPNC (Rous sarcoma virus); experiment: as above; remark: listed apart in the source
[3] = target: RSV CA protein (Rous sarcoma virus); experiment: cryo-EM structure; single-particle cryo-EM of T = 1 and T = 3 icosahedral CLPs; 500 µM CA assembled in 1 M NaPO4 at pH 8, diluted 1:4
[4] = target: RSV CA protein (Rous sarcoma virus); experiment: as above; remark: listed apart in the source

RSV CASPNC (domain or fragment)
stoichiometry N [1]: 5
stoichiometry N [2]: 6

RSV CA protein (natural protein)
stoichiometry N [3]: 5
stoichiometry N [4]: 6
